Values quoted from earlier work in US20160258855A1, “Methods and Apparatus to Determine Diffusion Properties of Porous Structures for Drug Delivery” (ForSight Vision4, Inc., priority 2010, published 2016).
Read-outs that look alike come from different tables or passages of the source.

Columns and labels:
[1] = rabbit eye, intravitreal, cited from earlier work
[2] = monkey eye, intravitreal, cited from earlier work
[3] = human eye, intravitreal, cited from earlier work

In the case of ranibizumab [Lucentis], the half-life in vitreous [1] is listed as “two to four”, the half-life in vitreous ([1]; listed as ranibizumab) is listed as “approximately 3 days” and the half-life in vitreous [2] is listed as “two to four”. The half-life in vitreous ([2]; listed as ranibizumab) was “approximately 3 days”, the half-life in vitreous [3] was “about nine” and the half-life in vitreous ([3]; listed as ranibizumab) was about 220 h.
